Assay results reported in the supplement of paper PMC7877785.
± gives the uncertainty stated by the source.

Test: self-splicing fitness, log relative to wild type (ln ratio); higher = more splicing; Tetrahymena group I intron in knt gene, E. coli kanamycin selection, DiMSum; sequences stand for … in CUCUCU…GGAGGGAAAAGUUAUCAGGCAUGCACCUGGUAGCUAGUCUUUAAACCAAUAGAUUGCAUCGGUUUAAAAGGCAAGACCGUCAAAUUGCGGGAAAGGGGUCAACAGCCGUUCAGUACCAAGUCUCAGGGGAAACUUUGAGAUGGCCUUGCAAAGGGUAUGGUAAUAAGCUGACGGACAUGGUCCUAACCACGCAGCCAAGUCCUAAGUCAACAGAUCUUCUGUUGAUAUGGAUGCAGUUCACAGACUAAAUGUCGGUCGGGGAAGAUGUAUUCUUCUCAUAAGAUAUAGUCGGACCUCUCCUUAAUGGGAGCUAGCGGAUGAAGUGAUGCAACACUGGAGCCGCUGGGAACUAAUUUGUAUGCGAAAGUAUAUUGAUUAGUUUUGGAGUACUCGUGGUCG
In short: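 A randomised library covering all eight P1ex-region intron nucleotides was built with the intron in the knt kanamycin-resistance gene on pET-22b(+) and held in E. coli BL21(DE3). Cells were grown overnight at 37°C or 30°C on LB agar, with or without 25 μg/mL kanamycin, plus 100 μg/mL carbenicillin, 50 μM IPTG and 0.2% rhamnose, and pooled colonies were amplicon-sequenced on an Illumina HiSeq 2500. DiMSum fitness is the error-weighted combination of wild-type-normalised replicate fold changes, kanamycin versus none.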

Row | Sequence | self-splicing fitness (ln) (30 °C) | self-splicing fitness (ln) (37 °C)
1 | GUCUAGCAAUAUUACGGGAU | -4.48 ± 0.42 | -3.39 ± 0.42
2 | GUCUAGCAAUAUUACGGUGU | -0.578 ± 0.046 | -0.0594 ± 0.06
3 | GUCUAGCAAUAUUACGUAGG | -0.837 ± 0.14 | -0.942 ± 0.21
4 | GUCUAGCAAUAUUACGUCCG | -2.96 ± 0.28 | -0.525 ± 0.19
5 | GUCUAGCAAUAUUACGUCGA | -2.12 ± 0.14 | -0.957 ± 0.13
6 | GUCUAGCAAUAUUACGUUUU | -1.2 ± 0.08 | -0.759 ± 0.084
7 | GUGAAGCAAUAUUACGACCA | -0.647 ± 0.18 | 0.84 ± 0.19
8 | GUGAAGCAAUAUUACGAGUG | -0.702 ± 0.094 | -0.702 ± 0.13
9 | GUGAAGCAAUAUUACGAGUU | -2.5 ± 0.12 | -1.14 ± 0.15
10 | GUGAAGCAAUAUUACGAUCG | -0.499 ± 0.097 | 0.218 ± 0.1
11 | GUGAAGCAAUAUUACGCAAG | -0.985 ± 0.09 | 0.0285 ± 0.1
12 | GUGAAGCAAUAUUACGCAUG | -1.5 ± 0.15 | -1.23 ± 0.18
13 | GUGAAGCAAUAUUACGCGAA | -1.56 ± 0.11 | -0.479 ± 0.12
14 | GUGAAGCAAUAUUACGCGCU | -2.31 ± 0.16 | -1.47 ± 0.13
15 | GUGAAGCAAUAUUACGGAAG | -1.94 ± 0.19 | 0.825 ± 0.21
16 | GUGAAGCAAUAUUACGGAGC | -4.68 ± 0.46 | -1.38 ± 0.16
17 | GUGAAGCAAUAUUACGGCUA | -0.323 ± 0.1 | 0.322 ± 0.12
18 | GUGAAGCAAUAUUACGUAUU | -1.21 ± 0.12 | 0.0695 ± 0.12
19 | GUGAAGCAAUAUUACGUCAA | -1.07 ± 0.077 | -0.245 ± 0.084
20 | GUGAAGCAAUAUUACGUCAG | -0.462 ± 0.076 | -0.996 ± 0.08
21 | GUGAAGCAAUAUUACGUCGU | -0.585 ± 0.11 | -0.777 ± 0.12
22 | GUGAAGCAAUAUUACGUGAU | -1.97 ± 0.12 | -1.03 ± 0.14

Row | Sequence | self-splicing fitness (ln) (30 °C) | self-splicing fitness (ln) (37 °C)
23 | GUGAAGCAAUAUUACGUGCU | -1.99 ± 0.091 | -0.974 ± 0.1
24 | GUGAAGCAAUAUUACGUGGA | -3.07 ± 0.13 | -1.24 ± 0.15
25 | GUGAAGCAAUAUUACGUGUU | -2.74 ± 0.1 | -1.23 ± 0.085
26 | GUGAAGCAAUAUUACGUUCG | -0.236 ± 0.095 | -0.797 ± 0.1
27 | GUGCAGCAAUAUUACGACGG |  | -2.73 ± 0.34
28 | GUGCAGCAAUAUUACGAGCC | -1.65 ± 0.2 | 
29 | GUGCAGCAAUAUUACGCAGG | -2.59 ± 0.12 | -3.12 ± 0.18
30 | GUGCAGCAAUAUUACGCGCU | -3.16 ± 0.48 | -1.77 ± 0.36
31 | GUGCAGCAAUAUUACGCUCA | -1.31 ± 0.1 | -0.388 ± 0.11
32 | GUGCAGCAAUAUUACGCUGC | -2.77 ± 0.18 | -2.14 ± 0.35
33 | GUGCAGCAAUAUUACGGACU | -1.28 ± 0.11 | -0.884 ± 0.14
34 | GUGCAGCAAUAUUACGGAUA | -1.76 ± 0.15 | -1.79 ± 0.19
35 | GUGCAGCAAUAUUACGGCUC | -0.0701 ± 0.085 | -0.129 ± 0.1
36 | GUGCAGCAAUAUUACGGGAU | -1.66 ± 0.066 | -1.32 ± 0.081
37 | GUGCAGCAAUAUUACGGUAA | -1.5 ± 0.18 | 0.218 ± 0.14
38 | GUGCAGCAAUAUUACGGUAG | -1.05 ± 0.057 | -0.428 ± 0.074
39 | GUGCAGCAAUAUUACGGUGU | -3.08 ± 0.11 | -1.74 ± 0.12
40 | GUGCAGCAAUAUUACGUAAU | -0.833 ± 0.06 | 0.129 ± 0.079
41 | GUGCAGCAAUAUUACGUAGA | -2.02 ± 0.087 | -0.647 ± 0.11
42 | GUGCAGCAAUAUUACGUCAC |  | -2.14 ± 0.21
43 | GUGGAGCAAUAUUACGACGU | -1.15 ± 0.14 | 0.0174 ± 0.16
